Results: patent US20200216522A1 (DENALI THERAPEUTICS, published 2020)

Key:
Test in all cases: peptide array
Peptide_044 = target: T1, Peptide_044 (human)
T1 peptide: PTPPTREPKKVAVVR
In short: (§1)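 Epitope mapping used slides carrying triplicate 15-residue peptides, offset by 5 aa, tiling full-length human Tau 2N4R. Chimeric IgG at 5 μg/mL or murine IgG at 30 μg/mL in 3% BSA-TBST (pH 7.5) bound for 2 h at RT; Alexa Fluor secondaries (568 or 647 nm channel) applied 1 h, then imaged.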

Peptide_022 = target: T2, Peptide_022 (human)
T2 peptide: AGIGDTPSLEDEAAG
In short: as §1

process-control peptide = target: T3, process-control peptide
T3 construct: array control, not a Tau peptide
T3 peptide: GGSGGGSDYKDDDDK
In short: as §1

Peptide_084 = target: T4, Peptide_084 (human)
T4 peptide: SIDMVDSPQLATLAD
In short: as §1

Peptide_015 = target: T5, Peptide_015 (human)
T5 peptide: TAEDVTAPLVDEGAP
In short: as §1

Peptide_027 = target: T6, Peptide_027 (human)
T6 peptide: SKDGTGSDDKKAKGA
In short: as §1

Peptide_076 = target: T7, Peptide_076 (human)
T7 peptide: LTFRENAKAKTDHGA
In short: as §1

Peptide_085 = target: T8, Peptide_085 (human)
T8 peptide: DSPQLATLADEVSAS
In short: as §1

Peptide_051 = target: T9, Peptide_051 (human)
T9 peptide: PDLKNVKSKIGSTEN
In short: as §1

Peptide_070 = target: T10, Peptide_070 (human)
T10 peptide: FKDRVQSKIGSLDNI
In short: as §1

Peptide_032 = target: T11, Peptide_032 (human)
T11 peptide: GAAPPGQKGQANATR
In short: as §1

Peptide_003 = target: T12, Peptide_003 (human)
T12 peptide: MEDHAGTYGLGDRKD
In short: as §1

Peptide_064 = target: T13, Peptide_064 (human)
T13 peptide: SKVTSKCGSLGNIHH
In short: as §1

Peptide_035 = target: T14, Peptide_035 (human)
T14 peptide: IPAKTPPAPKTPPSS
In short: as §1

Peptide_010 = target: T15, Peptide_010 (human)
T15 peptide: SPLQTPTEDGSEEPG
In short: as §1

Peptide_012 = target: T16, Peptide_012 (human)
T16 peptide: SEEPGSETSDAKSTP
In short: as §1

Peptide_023 = target: T17, Peptide_023 (human)
T17 peptide: TPSLEDEAAGHVTQA
In short: as §1

Peptide_002 = target: T18, Peptide_002 (human)
T18 peptide: QEFEVMEDHAGTYGL
In short: as §1

Peptide_048 = target: T19, Peptide_048 (human)
T19 peptide: PSSAKSRLQTAPVPM
In short: as §1

Peptide_040 = target: T20, Peptide_040 (human)
T20 peptide: GYSSPGSPGTPGSRS
In short: as §1

Peptide_004 = target: T21, Peptide_004 (human)
T21 peptide: GTYGLGDRKDQGGYT
In short: as §1

Peptide_029 = target: T22, Peptide_029 (human)
T22 peptide: KAKGADGKTKIATPR
In short: as §1

Peptide_039 = target: T23, Peptide_039 (human)
T23 peptide: SGDRSGYSSPGSPGT
In short: as §1

Peptide_041 = target: T24, Peptide_041 (human)
T24 peptide: GSPGTPGSRSRTPSL
In short: as §1

Peptide_006 = target: T25, Peptide_006 (human)
T25 peptide: QGGYTMHQDQEGDTD
In short: as §1

Peptide_082 = target: T26, Peptide_082 (human)
T26 peptide: RHLSNVSSTGSIDMV
In short: as §1

Peptide_025 = target: T27, Peptide_025 (human)
T27 peptide: HVTQARMVSKSKDGT
In short: as §1

Peptide_021 = target: T28, Peptide_021 (human)
T28 peptide: TTAEEAGIGDTPSLE
In short: as §1

Peptide_077 = target: T29, Peptide_077 (human)
T29 peptide: NAKAKTDHGAEIVYK
In short: as §1

Peptide_054 = target: T30, Peptide_054 (human)
T30 peptide: LKHQPGGGKVQIINK
In short: as §1

Peptide_056 = target: T31, Peptide_056 (human)
T31 peptide: QIINKKLDLSNVQSK
In short: as §1

Peptide_042 = target: T32, Peptide_042 (human)
T32 peptide: PGSRSRTPSLPTPPT
In short: as §1

Peptide_087 = target: T33, Peptide_087 (human)
T33 peptide: TLADEVSASLAKQGL
In short: as §1

Peptide_043 = target: T34, Peptide_043 (human)
T34 peptide: RTPSLPTPPTREPKK
In short: as §1

Peptide_007 = target: T35, Peptide_007 (human)
T35 peptide: MHQDQEGDTDAGLKE
In short: as §1

B1: murine anti-Tau hybridoma antibody 17G2.A1 (antibody, V domains shown)
VH: QVQLQQPGAELVGPGSSVKLSCKASGYTFINYWIDWMKQSPGQGLEWIGNIYPSDSESHYNQKFTDKATLTVDISSSTAYLQLSSLTSEDSAVYYCALYSKGYWGQGTSVTVSS
VL: DVLMTQTPLSLPVTLGDQASISCRSSQNIVHTNGNTYLEWYLQKPGQSPKLLIYKLSSRFSGVPDRFSGSGSGTDFTLKISRVEAEDLGVYYCFQGSHLPFTFGGGTKLEIKR
notes: mouse IgG from hybridoma; also called anti-Tau 17G2.A1
binding result (Peptide_044): no binding (tested: 30 ug/mL) | binding result (Peptide_022): no binding (tested: 30 ug/mL) | binding result (process-control peptide): no binding (tested: 30 ug/mL) | binding result (Peptide_084): no binding (tested: 30 ug/mL) | binding result (Peptide_015): no binding (tested: 30 ug/mL) | binding result (Peptide_027): no binding (tested: 30 ug/mL) | binding result (Peptide_076): no binding (tested: 30 ug/mL) | binding result (Peptide_085): no binding (tested: 30 ug/mL) | binding result (Peptide_051): no binding (tested: 30 ug/mL) | binding result (Peptide_070): no binding (tested: 30 ug/mL) | binding result (Peptide_032): no binding (tested: 30 ug/mL) | binding result (Peptide_003): no binding (tested: 30 ug/mL) | binding result (Peptide_064): no binding (tested: 30 ug/mL) | binding result (Peptide_035): no binding (tested: 30 ug/mL) | binding result (Peptide_010): no binding (tested: 30 ug/mL) | binding result (Peptide_012): no binding (tested: 30 ug/mL) | binding result (Peptide_023): no binding (tested: 30 ug/mL) | binding result (Peptide_002): no binding (tested: 30 ug/mL) | binding result (Peptide_048): no binding (tested: 30 ug/mL) | binding result (Peptide_040): no binding (tested: 30 ug/mL) | binding result (Peptide_004): no binding (tested: 30 ug/mL) | binding result (Peptide_029): no binding (tested: 30 ug/mL) | binding result (Peptide_039): binds | binding result (Peptide_041): no binding (tested: 30 ug/mL) | binding result (Peptide_006): no binding (tested: 30 ug/mL) | binding result (Peptide_082): no binding (tested: 30 ug/mL) | binding result (Peptide_025): no binding (tested: 30 ug/mL) | binding result (Peptide_021): no binding (tested: 30 ug/mL) | binding result (Peptide_077): no binding (tested: 30 ug/mL) | binding result (Peptide_054): no binding (tested: 30 ug/mL) | binding result (Peptide_056): no binding (tested: 30 ug/mL) | binding result (Peptide_042): no binding (tested: 30 ug/mL) | binding result (Peptide_087): no binding (tested: 30 ug/mL) | binding result (Peptide_043): no binding (tested: 30 ug/mL) | binding result (Peptide_007): no binding (tested: 30 ug/mL)

B2: chimeric IgG clone 1D10 (antibody, V domains shown)
VH: EVQLQQSGAELVRPGASVKLSCTASGFNIKDSLMHWMKQRPEQGLEWIGWIDPEDGETKYAPKFQDKATLTADTSSNAAYLQLSSLTSEDTAIYYCVRGDWDGGYWGQGTTLTVSS
VL: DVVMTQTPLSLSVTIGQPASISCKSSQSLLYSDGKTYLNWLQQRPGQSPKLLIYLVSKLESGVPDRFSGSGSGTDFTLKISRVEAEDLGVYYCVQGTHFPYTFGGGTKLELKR
notes: mouse-human chimeric IgG from HEK293
binding result (Peptide_044): no binding (tested: 5 ug/mL) | binding result (Peptide_022): no binding (tested: 5 ug/mL) | binding result (process-control peptide): no binding (tested: 5 ug/mL) | binding result (Peptide_084): no binding (tested: 5 ug/mL) | binding result (Peptide_015): no binding (tested: 5 ug/mL) | binding result (Peptide_027): no binding (tested: 5 ug/mL) | binding result (Peptide_076): no binding (tested: 5 ug/mL) | binding result (Peptide_085): no binding (tested: 5 ug/mL) | binding result (Peptide_051): binds | binding result (Peptide_070): binds | binding result (Peptide_032): no binding (tested: 5 ug/mL) | binding result (Peptide_003): no binding (tested: 5 ug/mL) | binding result (Peptide_064): no binding (tested: 5 ug/mL) | binding result (Peptide_035): no binding (tested: 5 ug/mL) | binding result (Peptide_010): no binding (tested: 5 ug/mL) | binding result (Peptide_012): no binding (tested: 5 ug/mL) | binding result (Peptide_023): no binding (tested: 5 ug/mL) | binding result (Peptide_002): no binding (tested: 5 ug/mL) | binding result (Peptide_048): no binding (tested: 5 ug/mL) | binding result (Peptide_040): no binding (tested: 5 ug/mL) | binding result (Peptide_004): no binding (tested: 5 ug/mL) | binding result (Peptide_029): no binding (tested: 5 ug/mL) | binding result (Peptide_039): no binding (tested: 5 ug/mL) | binding result (Peptide_041): no binding (tested: 5 ug/mL) | binding result (Peptide_006): no binding (tested: 5 ug/mL) | binding result (Peptide_082): no binding (tested: 5 ug/mL) | binding result (Peptide_025): no binding (tested: 5 ug/mL) | binding result (Peptide_021): no binding (tested: 5 ug/mL) | binding result (Peptide_077): no binding (tested: 5 ug/mL) | binding result (Peptide_054): no binding (tested: 5 ug/mL) | binding result (Peptide_056): no binding (tested: 5 ug/mL) | binding result (Peptide_042): no binding (tested: 5 ug/mL) | binding result (Peptide_087): no binding (tested: 5 ug/mL) | binding result (Peptide_043): no binding (tested: 5 ug/mL) | binding result (Peptide_007): no binding (tested: 5 ug/mL)
